Laboratory results taken from the supplement of paper PMC9170038.

Test system: MS2 coat protein
Experiment: apparent KD of MS2 coat protein; designed switch direction (-1 OFF switch, 1 ON switch): -1; higher = weaker reporter binding
Summary of the method: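 Designed RNA switches with common flanks were transcribed on Illumina chips by stalled E. coli RNA polymerase and titrated with SNAP-549-labelled MS2 coat protein, from 0.7 or 1.5 nM doubling to 3 µM, in Tris-HCl pH 7.5 buffer with KCl, MgCl2, BSA, DTT, tRNA and Tween-20. Steps lasted 0.8–1.5 h (lowest) to 10–20 min (highest). Titrations ran without input, with 200 uM small-molecule ligand, or with an oligonucleotide input. Normalised cluster fluorescence was curve-fitted, and apparent KD is the per-design median over clusters.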

[1] = input ligand: microRNA oligo, concentration not stated
[2] = Eterna round: R95, input ligand: FMN 200 uM
[3] = Eterna round: R95, input ligand: microRNA oligo, concentration not stated
[4] = Eterna round: R95, input ligand: none

UACAUGAGGAUCACCCAUGUUUUGUCGUGUAUGGUAUUUAUCUAGGAUAUCAAUUUAAUUAUUUAUGAGAAGGAGAAUAUUAAU [JMF's solution 17] (Eterna round: R96, puzzle: Exclusion NG 3)
apparent KD of MS2 coat protein [1]: 0.0298 µM

GUGAAUGCAAGCUUUAAAUACAUGAGGAUCACCCAUGUAAACGCUAACCGCGAUAAUUACUGGGUACCUCCCGUCUU [Eternabot (L2) Solution 44] (Eterna round: R97, puzzle: Sensor, turn-off variant 1)
apparent KD of MS2 coat protein (input ligand: FMN 200 uM): 0.0087 µM | apparent KD of MS2 coat protein (input ligand: none): 0.0249 µM

AGUUGUAAAGAGGAUAUCCAUCCCGGCAUCCAUGGAGAAGGUUUAACAUGAGGAUCACCCAUGUCAUGAUCCUC [Eternabot (L2) Solution 3] (Eterna round: R97, puzzle: Exclusion 6)
apparent KD of MS2 coat protein (input ligand: FMN 200 uM): 0.824 µM | apparent KD of MS2 coat protein (input ligand: none): 0.692 µM

AUAAUGUCAGGAUAUCAGUCGACUAGCUUCGGCUAGUCGACUGAGAAGGGACAUGAGGAUCACCCAUGUGUUUC [E4/14-A1] (Eterna round: R97, puzzle: Exclusion 4)
apparent KD of MS2 coat protein (input ligand: FMN 200 uM): 2.39 µM | apparent KD of MS2 coat protein (input ligand: none): 0.505 µM

UUUAAUUUUUUUUUUUUACAAGCUUUUUGCUCGUCUUAUACAUGAGGAUCACCCAUGUAGGUGAGAAAUGAAUUAUC [JMF 94] (puzzle: Sensor v3, turn-off variant 2)
apparent KD of MS2 coat protein [2]: 0.0265 µM | apparent KD of MS2 coat protein [3]: 0.152 µM | apparent KD of MS2 coat protein [4]: 0.0295 µM

UGAGACUGAGGAUAUACUAGACUACAAAGUAGUCAGUGGGUACAUGAGGAUCACCCAUGUAGAAGGCAGCCUCG [Omei Repeat Sequence v1] (Eterna round: R97, puzzle: Exclusion 2)
apparent KD of MS2 coat protein (input ligand: FMN 200 uM): 0.289 µM | apparent KD of MS2 coat protein (input ligand: none): 0.0359 µM

CGUAAGCUAGGAUAUGCUUUGGGAAAGCAUUCCUUCGAUAAACUUGAGGAUCACCCAAGUAGAAGGAGCUUACG [salish99_ex2_r4_010] (Eterna round: R97, puzzle: Exclusion 2)
apparent KD of MS2 coat protein (input ligand: FMN 200 uM): 0.0248 µM | apparent KD of MS2 coat protein (input ligand: none): 0.0168 µM

AAAGGACGAGGAUAUACAUGAGGAUCACCCAUGUAAGAAGCAUAAUAAAAUAACUUAUGUAGAAGGCGUCCAAA [Mat - Exclusion 3 - Eli mod - D94] (Eterna round: R96, puzzle: Exclusion 3)
apparent KD of MS2 coat protein [1]: 0.017 µM

AUUGUGUUAGGAUAUAACAACUACUAAUAAAUUAGUAGUUGUUAGAAGGAACAUGAGGAUCACCCAUGUAUGAU [-21.1, -20.3 kcal, A 38%] (Eterna round: R97, puzzle: Exclusion 4)
apparent KD of MS2 coat protein (input ligand: FMN 200 uM): 0.06 µM | apparent KD of MS2 coat protein (input ligand: none): 0.0294 µM

GUCCUUUCUGAGGAUAUUAUCCUUUUCGAUUGAUAAGAAGGCAGUACAUGAGGAUCACCCAUGUGGGUUGUCUG [Polaris30] (Eterna round: R97, puzzle: Exclusion 6)
apparent KD of MS2 coat protein (input ligand: FMN 200 uM): 0.0458 µM | apparent KD of MS2 coat protein (input ligand: none): 0.0382 µM

UCUAAACAUGAGGAUCACCCAUGUGAGGAUAUGAUGCAGCAGUGGUCUACGCUGUGCAUCAGAAGGCGCAUGUG (puzzle: Exclusion 1)
apparent KD of MS2 coat protein [2]: 0.148 µM | apparent KD of MS2 coat protein [3]: 0.0722 µM | apparent KD of MS2 coat protein [4]: 0.0804 µM

GUAAACGCAGAGGAUAUAUCAGAUCAAAGCUGCAUAGAAGGCUGCACAUGAGGAUCACCCAUGUGGUCUUCAAG [Mat - Exclusion 6 - JL Mod - D7] (Eterna round: R97, puzzle: Exclusion 6)
apparent KD of MS2 coat protein (input ligand: FMN 200 uM): 0.23 µM | apparent KD of MS2 coat protein (input ligand: none): 0.0312 µM

GUUCCGCGAGGAUAUACAGACGGGUCCAAAACGUGUCUCGGACUUGAGGAUCACCCAAGUAGAAGGCGUUUCAG [salish99_ex2_r4_622] (Eterna round: R97, puzzle: Exclusion 2)
apparent KD of MS2 coat protein (input ligand: FMN 200 uM): 0.0204 µM | apparent KD of MS2 coat protein (input ligand: none): 0.0221 µM

GCGCCAUCGUGAGAUGGCGUAAUUACAUGAGGAUCACCCAUGUAGGAUAUCGAUUGCUUUGCAGUCGAGAAGGGCAAGGUUUGU [JL ENG3 3.84] (Eterna round: R96, puzzle: Exclusion NG 3)
apparent KD of MS2 coat protein (input ligand: FMN 200 uM): 0.0257 µM | apparent KD of MS2 coat protein [1]: 0.0199 µM | apparent KD of MS2 coat protein (input ligand: none): 0.0309 µM

GGCCUUCCACGAGCUUUUUACAUGAGGAUCACCCAUGUGGUUUUUAGUCUUAUCCCGGGCCCGCUGUCGGGCCCGGG [-32.2, -52.8, A 13%] (Eterna round: R97, puzzle: Sensor, turn-off variant 1)
apparent KD of MS2 coat protein (input ligand: FMN 200 uM): 0.0291 µM | apparent KD of MS2 coat protein (input ligand: none): 0.033 µM

GAACCAAAAGGAUAUGGCGUAACAAACAUGAGGAUCACCCAUGUCCUCGAUGAAUAUCCGCCAGAAGGUUUGUCUC [Eternabot (L2) Solution 10] (Eterna round: R97, puzzle: Exclusion 5)
apparent KD of MS2 coat protein (input ligand: FMN 200 uM): 1 µM | apparent KD of MS2 coat protein (input ligand: none): 1.76 µM

UUUUAACAUGAGGAUCACCCAUGUGAGGAUAUCGAAAUUUAUAUUUAUAUUAAUUAAUCGAGAAGGCACAUUUU [JMF 84] (puzzle: Exclusion 1)
apparent KD of MS2 coat protein [3]: 0.15 µM

AAAGAGCGAGGAUAUACAUGAGGAUCACCCAUGUAAAGAUGCAUGGUCUGAACGUCUGGUAGAAGGCGUAUGAA [Diatater] (puzzle: Exclusion 3)
apparent KD of MS2 coat protein [3]: 0.0987 µM

UCGAGGUCAGGAUAUACAUGAGGAUCACCCAUGUGGAAGUAAGGUAGGAGAAGAGUAGGUAGAAGGGACGAGAG [JR_Exclu3_Sub050] (puzzle: Exclusion 3)
apparent KD of MS2 coat protein [3]: 0.0308 µM

GCGCAAACGCCAAAAGGCGAAACAACAUGAGGAUCACCCAUGUAGGAUAUCGAUUGCUUUGCAGUCGAGAAGGACAUAAUGCGC [JL ENG3 3.80 Mod 3] (Eterna round: R96, puzzle: Exclusion NG 3)
apparent KD of MS2 coat protein [1]: 0.0119 µM
